Measured values reported in publication PMC8065591, “SPECT Imaging of SST2-Expressing Tumors with ^99mTc-Based Somatostatin Receptor Antagonists: The Role of Tetraamine, HYNIC, and Spacers” (Pharmaceuticals, 2021).
Where a SMILES comes first, the peptide text is derived from it. Bridges are numbered along the chain shown (N, C = ends). [ ]: non-standard residue; d: D form. The star is where a group is joined. dPhe(4-NHCONH2) = NC(=O)Nc1ccc(C[C@@H](N)C(=O)O)cc1; Dihydroorotyl(S) = O=C1C[C@@H](C(=O)*)NC(=O)N1; Phe(4-Cl) = N[C@@H](Cc1ccc(Cl)cc1)C(=O)O; Phe(4-NH2) = Nc1ccc(C[C@H](N)C(=O)O)cc1; HYNIC = NNc1ccc(C(=O)*)cn1; Ahx = NCCCCCC(=O)O

How the values were obtained:
[1] = assay type: physicochemical
Protocol: In general, all JR11-based radiotracers were more hydrophilic than the corresponding SS01-based radiotracers. […] [^99[…] was excluded from further studies. […] In a pre-lubricated Eppendorf tube, a pre-saturated mixture of 500 μL 1-octanol and 500 μL of phosphate-buffered saline (PBS) at pH 7.4 was added. An amount of 10 μL of 1 μM radiotracer solution was added to this mixture, followed by vortexing of the tube at room temperature for 15 min to reach equilibrium. Centrifugation for 15 min at 3000 rpm was performed for separation of the phases. Aliquots of 100 μL were removed from the octanol and from the PBS phase, and the activity measured in a γ-counter. The partition coefficient was calculated as the average log ratio value of the radioactivity in the organic fraction and PBS fraction.

[2] = system: SST2; conditions: cited from earlier work
[3] = system: HEK-SST2 tumors; design: species or system mice; conditions: mouse, in vivo
Protocol: The Veterinary Office (Department of Health) of the Cantonal Basel-Stadt approved the animal experiments (approval no. 30515) in accordance with the Swiss regulations for animal treatment. Female athymic nude-Foxn1nu/Foxn1+ mice (Envigo, The Netherlands), 4-6 weeks old, were injected subcutaneously with 10^7 HEK-SST2 cells in the right shoulder, freshly suspended in 100 μL sterile phosphate-buffered saline. The tumors were allowed to grow for 2-3 weeks. Mice bearing HEK-SST2 tumors were euthanized 1 or 4 h after intravenous injection of 4-6 MBq (200 pmol) of the ^99mTc-labeled conjugates and imaged supine, head first, using a SPECT/CT system dedicated to imaging small animals (NanoSPECT/CT^TM Bioscan Inc.). Topograms and helical CT scans of the whole mouse were first acquired using the following parameters: X-ray tube current: 177 μA, X-ray tube voltage 45 kVp, 90 s and 180 frames per rotation, pitch 1. The helical SPECT scan was then acquired from head to toe using multi-purpose pinhole collimators (APT1). The energy window width was 20%, centered symmetrically over the energy peak of ^99mTc at 140 keV. Twenty-four projections (200 s per projection) were used, allowing acquisition of at least 50 kilocounts/projection. […]

| Compound | Log D (pH = 7.4) [1] | also measured |
| --- | --- | --- |
| C[C@@H](O)[C@@H]1NC(=O)[C@H](CCCCN)NC(=O)[C@@H](Cc2c[nH]c3ccccc23)NC(=O)[C@H](Cc2ccc(O)cc2)NC(=O)[C@H](NC(=O)[C@H](Cc2ccc(Cl)cc2)NC(=O)c2ccc(NN)nc2)CSSC[C@@H](C(=O)N[C@H](Cc2ccc(O)cc2)C(N)=O)NC1=O [[^99mTc]Tc-HYNIC-SS01, metal not drawn] | −2.21 ± 0.07 |  |
| Cpa-c(DCys-Aph(Hor)-DAph(Cbm)-Lys-Thr-Cys)-DTyr-NH2 [JR11] |  | affinity for SST2 (in words) [2]: high affinity |
| C[C@@H](O)[C@@H]1NC(=O)[C@H](CCCCN)NC(=O)[C@@H](Cc2ccc(NC(N)=O)cc2)NC(=O)[C@H](Cc2ccc(NC(=O)[C@@H]3CC(=O)NC(=O)N3)cc2)NC(=O)[C@H](NC(=O)[C@H](Cc2ccc(Cl)cc2)NC(=O)CCCCCNC(=O)c2ccc(NN)nc2)CSSC[C@@H](C(=O)N[C@H](Cc2ccc(O)cc2)C(N)=O)NC1=O [[^99mTc]Tc-HYNIC-Ahx-JR11, metal not drawn] ({HYNIC-Ahx}-[Phe(4-Cl)][dC][Phe(4-NH2)](Dihydroorotyl(S))[dPhe(4-NHCONH2)]KTC[dY]-NH2; disulfide 2-7) | −3.15 ± 0.06 |  |
| C[C@@H](O)[C@@H]1NC(=O)[C@H](CCCCN)NC(=O)[C@@H](Cc2ccc(NC(N)=O)cc2)NC(=O)[C@H](Cc2ccc(NC(=O)[C@@H]3CC(=O)NC(=O)N3)cc2)NC(=O)[C@H](NC(=O)[C@H](Cc2ccc(Cl)cc2)NC(=O)c2ccc(NN)nc2)CSSC[C@@H](C(=O)N[C@H](Cc2ccc(O)cc2)C(N)=O)NC1=O [[^99mTc]Tc-HYNIC-JR11, metal not drawn] ({HYNIC}-[Phe(4-Cl)][dC][Phe(4-NH2)](Dihydroorotyl(S))[dPhe(4-NHCONH2)]KTC[dY]-NH2; disulfide 2-7) | −2.88 ± 0.11 |  |
| C[C@@H](O)[C@@H]1NC(=O)[C@H](CCCCN)NC(=O)[C@@H](Cc2c[nH]c3ccccc23)NC(=O)[C@H](Cc2ccc(O)cc2)NC(=O)[C@H](NC(=O)[C@H](Cc2ccc(Cl)cc2)NC(=O)CCOCCOCCOCCOCCNC(=O)c2ccc(NN)nc2)CSSC[C@@H](C(=O)N[C@H](Cc2ccc(O)cc2)C(N)=O)NC1=O [[^99mTc]Tc-HYNIC-PEG4-SS01, metal not drawn] | −2.03 ± 0.13 |  |
| C[C@@H](O)[C@@H]1NC(=O)[C@H](CCCCN)NC(=O)[C@@H](Cc2c[nH]c3ccccc23)NC(=O)[C@H](Cc2ccc(O)cc2)NC(=O)[C@H](NC(=O)[C@H](Cc2ccc(Cl)cc2)NC(=O)CCCCCNC(=O)c2ccc(NN)nc2)CSSC[C@@H](C(=O)N[C@H](Cc2ccc(O)cc2)C(N)=O)NC1=O [[^99mTc]Tc-HYNIC-Ahx-SS01, metal not drawn] | −1.96 ± 0.06 |  |
| C[C@@H](O)[C@@H]1NC(=O)[C@H](CCCCN)NC(=O)[C@@H](Cc2c[nH]c3ccccc23)NC(=O)[C@H](Cc2ccc(O)cc2)NC(=O)[C@H](NC(=O)[C@H](Cc2ccc(Cl)cc2)NC(=O)CCNC(=O)c2ccc(NN)nc2)CSSC[C@@H](C(=O)N[C@H](Cc2ccc(O)cc2)C(N)=O)NC1=O [[^99mTc]Tc-HYNIC-β-Ala-SS01, metal not drawn] | −1.91 ± 0.19 | washout from the tumor on SPECT/CT images (in words) [3]: very fast washout from the tumor |
| C[C@@H](O)[C@@H]1NC(=O)[C@H](CCCCN)NC(=O)[C@@H](Cc2c[nH]c3ccccc23)NC(=O)[C@H](Cc2ccc(O)cc2)NC(=O)[C@@H](NC(=O)[C@@H](Cc2ccccc2)NC(=O)c2ccc(NN)nc2)CSSC[C@@H](C(=O)N[C@H](CO)[C@@H](C)O)NC1=O [[^99mTc]Tc-HYNIC-TOC, metal not drawn, reference compound] |  | logD ([1]; pH 7.4): -2.77 ± 0.07 |
